B1: library; numbered along this chain (parent)
chain: MRKPRAAVGSGHRKQAASQEGRQKHAKNNSQAKPSACDGLARQPEEVVLQASVSSYHLFRDVAEVTAFRGSLLSWYDQEKRDLPWRRRAEDEMDLDRRAYAVWVSEVMLQQTQVATVINYYTGWMQKWPTLQDLASASLEEVNQLWAGLGYYSRGRRLQEGARKVVEELGGHMPRTAETLQQLLPGVGRYTAGAIASIAFGQATGVVDGNVARVLCRVRAIGADPSSTLVSQQLWGLAQQLVDPARPGDFNQAAMELGATVCTPQRPLCSQCPVESLCRARQRVEQEQLLASGSLSGSPDVEECAPNTGQCHLCLPPSEPWDQTLGVVNFPRKASRKPPREESSATCVLEQPGALGAQILLVQRPNSGLLAGLWEFPSVTWEPSEQLQRKALLQELQRWAGPLPATHLRHLGEVVHTFSHIKLTYQVYGLALEGQTPVTTVPPGARWLTQEEFHTAAVSTAMKKVFRVYQGQQPGTCMGSKRSQVSSPCSRKKPRMGQQVLDNFFRSHISTDAHSLNSAAQ

Variants of: B1
Assay: 8OG:A repair function score (normalized; synonymous = 0, nonsense = -1) (normalized log-likelihood score); higher = more repair activity (WT-like)
Details: with 8OG:A DNA repair reporter (GFP) in HEK-293 MUTYH KO cells
Summary of the method: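 Per-tile Rosace fitness scores were converted to a normalized repair function score anchored on synonymous and nonsense distributions. That scale puts synonymous medians at 0 and nonsense medians at -1. Variants with starting counts under 300 counts per million were discarded. Input came from sorting viable mCherry+ MUTYH knockout HEK-293 cells, carrying lentiviral MUTYH cDNA NNN codon-scan libraries in 10 pg/ml doxycycline and an 8OG:A GFP repair reporter, into GFP+ and GFP− bins at 72 h, three replicates per tile, followed by tile amplicon sequencing.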
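Further: cells sorted at 72 h after reporter transfection.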

Going from MRKPRAAVGSGHRKQAASQEGRQKHAKNNSQAKPSACDGLARQPEEVVLQASVSSYHLFRDVAEVTAFRGSLLSWYDQEKRDLPWRRRAEDEMDLDRRAYAVWVSEVMLQQTQVATVINYYTGWMQKWPTLQDLASASLEEVNQLWAGLGYYSRGRRLQEGARKVVEELGGHMPRTAETLQQLLPGVGRYTAGAIASIAFGQATGVVDGNVARVLCRVRAIGADPSSTLVSQQLWGLAQQLVDPARPGDFNQAAMELGATVCTPQRPLCSQCPVESLCRARQRVEQEQLLASGSLSGSPDVEECAPNTGQCHLCLPPSEPWDQTLGVVNFPRKASRKPPREESSATCVLEQPGALGAQILLVQRPNSGLLAGLWEFPSVTWEPSEQLQRKALLQELQRWAGPLPATHLRGLGEVVHTFSHIKLTYQVYGLALEGQTPVTTVPPGARWLTQEEFHTAAVSTAMKKVFRVYQGQQPGTCMGSKRSQVSSPCSRKKPRMGQQVLDNFFRSHISTDAHSLNSAAQ [H410G] to MRKPRAAVGSGHRKQAASQEGRQKHAKNNSQAKPSACDGLARQPEEVVLQASVSSYHLFRDVAEVTAFRGSLLSWYDQEKRDLPWRRRAEDEMDLDRRAYAVWVSEVMLQQTQVATVINYYTGWMQKWPTLQDLASASLEEVNQLWAGLGYYSRGRRLQEGARKVVEELGGHMPRTAETLQQLLPGVGRYTAGAIASIAFGQATGVVDGNVARVLCRVRAIGADPSSTLVSQQLWGLAQQLVDPARPGDFNQAAMELGATVCTPQRPLCSQCPVESLCRARQRVEQEQLLASGSLSGSPDVEECAPNTGQCHLCLPPSEPWDQTLGVVNFPRKASRKPPREESSATCVLEQPGALGAQILLVQRPNSGLLAGLWEFPSVTWEPSEQLQRKALLQELQRWAGPLPATHLRHLGEVVHTFSHIKLTYQVYGLALEGQTPVTTVPPGARWLTQEEFHTAAVSTAMKKVFRVYYGQQPGTCMGSKRSQVSSPCSRKKPRMGQQVLDNFFRSHISTDAHSLNSAAQ [Q470Y], the “8OG:A repair function score” value rises from -0.298 to -0.0671.

Going from MRKPRAAVGSGHRKQAASQEGRQKHAKNNSQAKPSACDGLARQPEEVVLQASVSSYHLFRDVAEVTAFRGSLLSWYDQEKRDLPWRRRAEDEMDLDRRAYAVWVSEVMLQQTQVATVINYYTGWMQKWPTLQDLASASLEEVNQLWAGLGYYSRGRRLQEGARKVVEELGGHMPRTAETLQQLLPGVGRYTAGAIASIAFGQATGVVDGNVARVLCRVRAIGADPSSTLVSQQLWGLAWQLVDPARPGDFNQAAMELGATVCTPQRPLCSQCPVESLCRARQRVEQEQLLASGSLSGSPDVEECAPNTGQCHLCLPPSEPWDQTLGVVNFPRKASRKPPREESSATCVLEQPGALGAQILLVQRPNSGLLAGLWEFPSVTWEPSEQLQRKALLQELQRWAGPLPATHLRHLGEVVHTFSHIKLTYQVYGLALEGQTPVTTVPPGARWLTQEEFHTAAVSTAMKKVFRVYQGQQPGTCMGSKRSQVSSPCSRKKPRMGQQVLDNFFRSHISTDAHSLNSAAQ [Q239W] to MRKPRAAVGSGHRKQAASQEGRQKHAKNNSQAKPSACDGLARQPEEDVLQASVSSYHLFRDVAEVTAFRGSLLSWYDQEKRDLPWRRRAEDEMDLDRRAYAVWVSEVMLQQTQVATVINYYTGWMQKWPTLQDLASASLEEVNQLWAGLGYYSRGRRLQEGARKVVEELGGHMPRTAETLQQLLPGVGRYTAGAIASIAFGQATGVVDGNVARVLCRVRAIGADPSSTLVSQQLWGLAQQLVDPARPGDFNQAAMELGATVCTPQRPLCSQCPVESLCRARQRVEQEQLLASGSLSGSPDVEECAPNTGQCHLCLPPSEPWDQTLGVVNFPRKASRKPPREESSATCVLEQPGALGAQILLVQRPNSGLLAGLWEFPSVTWEPSEQLQRKALLQELQRWAGPLPATHLRHLGEVVHTFSHIKLTYQVYGLALEGQTPVTTVPPGARWLTQEEFHTAAVSTAMKKVFRVYQGQQPGTCMGSKRSQVSSPCSRKKPRMGQQVLDNFFRSHISTDAHSLNSAAQ [V47D], the “8OG:A repair function score” value rises from -0.74 to -0.0274.

First: MRKPRAAVGSGHRKQAASQEGRQKHAKNNSQAKPSACDGLARQPEEVVLQASVSSYHLFRDVAEVTAFRGSLLSWYDQEKRDLPWRRRAEDEMDLDRRAYAVWVSEVMLQQTQVATVINYYTGWMQKWPTLQDLASASLEEVNQLWAGLGYYSRGRRLQEGARKVVEELGGHMPRTAETLQQLLPGVGRYTAGAIATIAFGQATGVVDGNVARVLCRVRAIGADPSSTLVSQQLWGLAQQLVDPARPGDFNQAAMELGATVCTPQRPLCSQCPVESLCRARQRVEQEQLLASGSLSGSPDVEECAPNTGQCHLCLPPSEPWDQTLGVVNFPRKASRKPPREESSATCVLEQPGALGAQILLVQRPNSGLLAGLWEFPSVTWEPSEQLQRKALLQELQRWAGPLPATHLRHLGEVVHTFSHIKLTYQVYGLALEGQTPVTTVPPGARWLTQEEFHTAAVSTAMKKVFRVYQGQQPGTCMGSKRSQVSSPCSRKKPRMGQQVLDNFFRSHISTDAHSLNSAAQ [S197T]
Second: MRKPRAAVGSGHRKQAASQEGRQKHAKNNSQAKPSACDGLARQPEEVVLQASVSSYHLFRDVAEVTAFRGSLLSWYDQEKRDLPWRRRAEDEMDLDRRAYAVWVSEVMLQQTQVATVINYYTGWMQKWPTLQDLASASLEEVNQLWAGLGYYSRGRRLQEGARKVVEELGGHMPRTAETLQQLLPGVGRYTAGAIASIAFGQATGVVDGNVARVLCRVRAIGADPSSTLVSQQLWGLAQQLVDPARPGDFNQAAMELGATVCTPQRPLCSQCPVESLCRARQRVEQEQLKASGSLSGSPDVEECAPNTGQCHLCLPPSEPWDQTLGVVNFPRKASRKPPREESSATCVLEQPGALGAQILLVQRPNSGLLAGLWEFPSVTWEPSEQLQRKALLQELQRWAGPLPATHLRHLGEVVHTFSHIKLTYQVYGLALEGQTPVTTVPPGARWLTQEEFHTAAVSTAMKKVFRVYQGQQPGTCMGSKRSQVSSPCSRKKPRMGQQVLDNFFRSHISTDAHSLNSAAQ [L290K]
The “8OG:A repair function score” value of the first is lower: -0.695 for the first, 0.0241 for the second.

Source: the supplement of paper PMC11908140
